The values that follow come from article PMC7547085, “Specific and direct modulation of the interaction between adhesion GPCR GPR56/ADGRG1 and tissue transglutaminase 2 using synthetic ligands” (Scientific Reports, 2020).

Sequences and labels used below:
B1: mouse full-length GPR56 (GPR56 FL), wild type, on HEK293T cells [mouse] / mouse tissue transglutaminase 2 C-terminal D3D4 domains (mTG2 D3D4) [modified: biotin on the AVI-tag; biotin on the AVI-tag] [mouse] (parent)
chain 1: TGVAMRIRVGDSMSMGNDFDVFAHIGNDTSETRECRLLLCARTVSYNGVLGPECGTEDINLTLDPYSENSIPLRILYEKYSGCLTESNLIKVRGLLIEPAANSYLLAERDLYLENPEIKIRVLGEPKQNRKLVAEVSLKNPLSDPLYDCIFTVEGAGLTKEQKSVEVSDPVPAGDLVKARVDLFPTDIGLHKLVVNFQCDKLKSVKGYRNVIIGPA
chain 2: GSPREDFRFCGQRNQTQQSTLHYDQSSEPHIFVWNTEETLTIRAPFLAAPDIPRFFPEPRGLYHFCLYWSRHTGRLHLRYGKHDYLLSSQASRLLCFQKQEQSLKQGAPLIATSVSSWQIPQNTSLPGAPSFIFSFHNAPHKVSHNASVDMCDLKKELQQLSRYLQHPQKAAKRPTAAFISQQLQSLESKLTSVSFLGDTLSFEEDRVNATVWKLPPTAGLEDLHIHSQKEEEQSEVQAYSLLLPRAVFQQTRGRRRDDAKRLLVVDFSSQALFQDKNSSQVLGEKVLGIVVQNTKVTNLSDPVVLTFQHQPQPKNVTLQCVFWVEDPASSSTGSWSSAGCETVSRDTQTSCLCNHLTYFAVLMVSSTEVEATHKHYLTLLSYVGCVISALACVFTIAAYLCSRRKSRDYTIKVHMNLLSAVFLLDVSFLLSEPVALTGSEAACRTSAMFLHFSLLACLSWMGLEGYNLYRLVVEVFGTYVPGYLLKLSIVGWGFPVFLVTLVALVDVNNYGPIILAVRRTPERVTYPSMCWIRDSLVSYVTNLGLFSLVFLFNLAMLATMVVQILRLRPHSQNWPHVLTLLGLSLVLGLPWALVFFSFASGTFQLVILYLFSIITSFQGFLIFLWYWSMRFQAQGGPSPLKNNSDSAKLPISSGSTSSSRI

In this test the parent is B1. The experiment in a line: flow cytometry on cells. To be noted: with mouse tissue transglutaminase 2 C-terminal D3D4 domains (mTG2 D3D4) [modified: biotin on the AVI-tag, 5 nM TG2 D3D4 (tetramerized), GPR56 FL constructs expressed on HEK293T cells, n = 3, parent: 1, read off a plot. On the technique in general: In flow cytometry, cells or beads pass a laser one at a time.
On to chain 2 H64A Y68A S125A, for which the ratio to parent worked out at 4.1.

Turning to chain 2 H64A Y68A, the ratio to parent came to 0.22.

Turning to chain 2 H64A Y68A R79D, the ratio to parent was found to be 0.2.

Consider chain 2 S125A, for which the ratio to parent worked out at 8.7.

Regarding chain 2 H64A S125A, the ratio to parent amounted to 6.6.

On to chain 2 L62D, for which the ratio to parent stood at 0.21.

Regarding chain 2 H64A, the ratio to parent amounted to 0.64.

chain 2 Y68A: the ratio to parent was found to be 0.33.

Regarding chain 2 L62D S125A, the ratio to parent was determined as 0.33.
